{
  "source": "the DeepSol protein solubility set",
  "test": "soluble on expression in E. coli; label from the status in PepcDB or PDB records",
  "data": [
    {"sequence": "MSLDWHTLLTRERLGKALYSADELGRSPFHKDHDRIIFSGAFRRLGRKTQVHPVSSNDHIHTRLTHSLEVSCVGRSLGMRVGETLRDNLPDWCAPSDLGMIVQSACLAHDIGNPPFGHSGEDAIRHWFQQAAGRGWLDDMSDDERADFLNFEGNAQGFRVLTQLEYHQFDGGTRLTYATLGTYLKYPWSARHADALGYKKHKFGSYQSELPLLEQIARKLGLPQLEHQRWARHPLVYLMEAADDICYALIDLEDGLEMELLQYAEVEALLLDLVGEDLPETYRQLGPRDSRRRKLAILRGKAIEHLTNAAAHAFVEQQQALLAGQLPGDLVEHMHGPAKRCVLQAKDMARNKIFQDKRKTLHEIGAYTTLEILLNTFCGAALEQHGGRTPSFKSRRVLDLIGNNAPDPHASLHSAFLRMIDFIAGMTDSYASEMAREMTGRSSPTEGHHHHHH", "values": [
      {"measurement": "soluble on expression in E. coli", "result": "soluble"}
    ]},
    {"sequence": "MGSDKIHHHHHHMAFLDVKGIRKTFPGVVALDGVDLEIELGAVHVLAGENGAGKSTLIRALTGLLPLDGGSIHIDGRDALTDRSAFDLVAYVPQELSLFPHMSVAENLFMPFAKAGFGGRVLPYAEMNRQAGAILERFSIKARPEQKVKSIAVSDQQLLQIARATTNKRLKVLILDEPTSSLTTQEIDRLFRILRQFRDNGTAIVFVSHKMEEIFELGTTVTVLRNGKTVGHRPMAAVSEPELIRLMSGDEVQLDQLFQPACAPGETIVTVDGLCGQGFHDISFALRRGEILGFAGLVGAGRSEVMQSMFGFKKPTGGTVLLKGRPLKLGKPSAAVEAGMLYLSEERRLHGILPVLSLRENIGISVLDQTSRGGVISTARERGVVGEVIASYDIKASSPEKKIMFLSGGNQQKAIIGRAMARKPDVLIFDEPTRGIDIRNKVEIYKIMKRLAEDGVAIILVSSEMAELKRCASRIITMYSGKLSGEFATATTDTHTLVGAIIGSAQSGQPPAGAPSPVADLETGARCHVL", "values": [
      {"measurement": "soluble on expression in E. coli", "result": "not soluble"}
    ]},
    {"sequence": "MKKPNGTNGASSSLEPPPSTFQPLCHPLVEEVSKEVDGYFLQHWNFPNEKARKKFVAAGFSRVTCLYFPKALDDRIHFACRLLTVLFLIDDLLEYMSFEEGSAYNEKLIPISRGDVLPDRSIPVEYIIYDLWESMRAHDREMADEILEPVFLFMRAQTDRTRARPMGLGGYLEYRERDVGKELLAALMRFSMGLKLSPSELQRVREIDANCSKHLSVVNDIYSYEKELYTSKTAHSEGGILCTSVQILAQEADVTAEAAKRVLFVMCREWELRHQLLVARLSAEGLETPGLAAYVEGLEYQMSGNELWSQTTLRYSVVVD", "values": [
      {"measurement": "soluble on expression in E. coli", "result": "soluble"}
    ]},
    {"sequence": "QSIEKLYAEFETEPIASASIAQVHKARLHSGEQVAVKVLRPNLLPVIEQDLSLMRFGAGWVERLFADGKRLKPREVVAEFDKYLHDELDLMREAANASQLGRNFQNSDMLIVPKVFYDYC", "values": [
      {"measurement": "soluble on expression in E. coli", "result": "not soluble"}
    ]},
    {"sequence": "MSSRYSERNGLSETEKMTLPKVRKRKAQLVDEIEALKNEVREVDEELDQVYYTHPKSKEYHKIVVNGRKKFNQDPWKALDWLASRNVVAKDPQALALWMKAGEGLSKSAIGEILGDNRPFALETLDRFTKEHKLHDVPIVPALRQYLFSFRLPGESQKINRILEKFAEVYANQNPSYGNADQAHTVAYSCIMVNTLLHNPNVKDKPSLEKYIEMNEQLLEKGAITIEQLTEVYESVSVTQFKIPDEVSTSGKGTVNDILLHAEREGWLFKQSSNPLFSGALSWKKRWFVLSENCLYYFDQMTDKEPKGIITLANVGIRKVEAPSRPFMFEIFSLSDGQIKACKTEQDGRLVEGRHSIYKICAVNDEDMRSWINAISRMMAPQQHLLARPKSTH", "values": [
      {"measurement": "soluble on expression in E. coli", "result": "soluble"}
    ]},
    {"sequence": "MSGRKIAAATVQNRTQTPFWNWLKQKLLASDRLPITPPPGIAGPDGKAVYQNPLRFPNTQSARPCSAELPALPGGVHHKLADNYYLTRDGRRNVDAPKVLYSSGEFVGGEKAQPAQVNQGVATNFGLTAPTPGFGAEWSRSKQNELASQQKNTEFEYLQRFDKFTKSA", "values": [
      {"measurement": "soluble on expression in E. coli", "result": "not soluble"}
    ]},
    {"sequence": "GSHMGGGGGIVLFVDFDYFYAQVEEVLNPSLKGKPVVVCVFSGRFEDSGAVATANYEARKFGVKAGIPIVEAKKILPNAVYLPMRKEVYQQVSSRIMNLLREYSEKIEIASIDEAYLDISDKVRDYREAYNLGLEIKNKILEKEKITVTVGISKNKVFAKIAADMAKPNGIKVIDDEEVKRLIRELDIADVPGIGNITAEKLKKLGINKLVDTLSIEFDKLKGMIGEAKAKYLISLARDEYNEPIRTRVRKSIGRIVTMKRNSRNLEEIKPYLFRAIEESYYKLDKRIPKAIHVVAVTEDLDIVSRGRTFPHGISKETAYSESVKLLQKILEEDERKIRRIGVRFSKFIEAIGLDKFFDT", "values": [
      {"measurement": "soluble on expression in E. coli", "result": "soluble"}
    ]},
    {"sequence": "MSLSHSAEDSRRRELGAFLRSRRERLTPSATGISTGLRRRTPGLRREEVAMIAGVGTTWYTWLEQGRDVRPSVEVLTALSGALRLDAAEKRHLFTLAGRQLPERRRIAAGKVEGPLLHMLQSLVLQPAYVVGPRWDVLAWNDAAVAIFGDYGQLEGDARNIIHGVFTDPHRRHLLADWEQVARATLAAFRAESARYVGDPDFERLIALMMRSSPEFREWWPQRDVVHRLSGMKHLRHPTAGAMVFEHMSLSIDDGSDMKLIVYTPLAEQNSIAKLQSLLDAILRKEDRLKGIITITTDPNSSSVDKLAAALEHHHHHH", "values": [
      {"measurement": "soluble on expression in E. coli", "result": "soluble"}
    ]},
    {"sequence": "MGSDKIHHHHHHMENERKRILELVKQGIISTEEALTLLENISKKEGKTAAKENIRRSAAPREEEQVEEETKEEPSYDYSKGWNNQGNPYTPPKSRKRRPEPTPENHERDEEEGGENSSKDREDSMRNMVNDLSQAGEKIGSFLNSAFKQVKDMPFPFLTSTKIERDFIYHDTTLSILEFEIANGNIEFKPSDSNDIKVHAMIKLFKEYPEDEALKIFFDKTTLRVDEETLRFESKSKQIVTNLTVYLPRREYDYVSVKMLNGNFHMDELSGRDLFVKTTNGNISIGTLNATLAEIESINGNVRIQNGEIRDVALKTFNGNVAVKGNYYSTNLQTKNGNVNYQLTGNEATFLKAKTGAGNIDVVVPAAIGVDGRFHTNLGKLLLDLKDAEILESKTESVSKSIIFTKLPDAADSSLKIEAEATTGSVKIRDVK", "values": [
      {"measurement": "soluble on expression in E. coli", "result": "not soluble"}
    ]},
    {"sequence": "IKKEPEKPIDREKTCPLLLRVFTTNNGRHHRMDEFSRGNVPSSELQIYTWMDATLKELTSLVKEVYPEARKKGTHFNFAIVFTDVKRPGYRVKEIGSTMSGRKGTDDSMTLQSQKFQIGDYLDIAITPPNRAPPTSGRMRPY", "values": [
      {"measurement": "soluble on expression in E. coli", "result": "not soluble"}
    ]},
    {"sequence": "MSLAQAMKIAIVDDEQDMRQSISQWLALSGYDTETFASAEEALKVLGSEYPGIVISDIKMPGMDGMQFLKKLMGADSSLPVIMITGHGDVPMAVEAMRVGAFDFLEKPFNPDRMSDLAKRASNARRLTLDNRALRRELSDGGQIMKKLIGTSPVMERLREDILDLGQADGHVLIDGETGTGKTLVAHALHAVGSRAGKKFVLVSCSALEEEALAKRLFGPMIPEDAQLPAIEEARGGTLVLEDVESLSDALQAKLLSVMNQQGTPAETRIVAISNLQEAGKTSEDVLRPDLFYRLAALRLTMPPLRQRGEDILTLFTRLSEQFAEEYGCDAPQVSAQEAAQLLQAPWPGNVRQLINIAERAVLQARRGSGTIASLLMSDHEDEGHHHHHH", "values": [
      {"measurement": "soluble on expression in E. coli", "result": "soluble"}
    ]},
    {"sequence": "MGSDKIHHHHHHMKILAFGEVLLRMTVPEHLMLTQTDELRMSTVGTGVNLLSSLTHFGYRTRLLSRLPDNALGQRAAGELRRYGIQDDYVTFGGQHMGAYFVELGYGSRPERVTYQDRLSSAFCQQPPDDQEIAAALVGCQFVHICGITLSLTAPVRQAALRLAQQAHANGQRVCFDFNYRQQLNTGVAHETLKARYQEILPYVDIVFGSKRDLTALLDYPDDEDRTQSANRESEAALYEQFVRDYHIDYFAGSYRYQIGQQKWFAGFSYQHQQLVVGKARPLMILDRIGSGDAFASGIITALIEGWSLQKTTDFAIATAILAQATVNDAPEFTKEMVLADMASDGQLELIR", "values": [
      {"measurement": "soluble on expression in E. coli", "result": "not soluble"}
    ]},
    {"sequence": "MGSDKIHHHHHHMKLEELNSKYNAFITLHTIEEGNDKGKLKDVTFGIKDVILTKDVRTTAGSRVLENYVPQRNAYVVDAILREGGKIIGKTNTHEFALGATNTSSIGGPARNPVDPERISGGSSGGSAVAVKLDMVDVGIGTDTGGSVRIPSSLCGVIGFKPTTGLIPNDGVIPFSWSLDTVGIIVKDNIRLLRRVFDVVLPNEKRKVEIAKLRTRPRLGLFLFDDMEVSRILLKDIYAKLSSHFDIVEVDLPLLRQYGSKTRRTISLAEAASYHKDWISEYSDKYFKDTYTLLLDGMKISATDYIDALRHRRVLIEEYVKVFKNIDFILSPTTKIVAPRISDVISNPLQFREYLIANTELFNVVGAPSISVPFSTLNDLPAGLMISGELYKDGDLLEVAEYILNIVGKH", "values": [
      {"measurement": "soluble on expression in E. coli", "result": "not soluble"}
    ]}
  ]
}
